Blank lines part the entries; values can stand above or below the substance they belong to.
Legend:
[1] = target: FcRn immobilized on FcRn column (Roche, Order No. 8128057001); assay: FcRn affinity chromatography, linear pH gradient
[2] = target: cynomolgus CCR8 (cynomolgus); assay: FACS, CHO cells expressing cynomolgus CCR8, signal at saturation
murine CCR8 (mouse) = murine CCR8 (mouse) (UniProt P56484); assay: cell-based or functional assay
[3] = target: human CCR4 (P51679_CCR4_HUMAN) (human) (UniProt P51679); assay: cell-based or functional assay
Chain of human CCR4 (P51679_CCR4_HUMAN) (human) (P51679 whole entry): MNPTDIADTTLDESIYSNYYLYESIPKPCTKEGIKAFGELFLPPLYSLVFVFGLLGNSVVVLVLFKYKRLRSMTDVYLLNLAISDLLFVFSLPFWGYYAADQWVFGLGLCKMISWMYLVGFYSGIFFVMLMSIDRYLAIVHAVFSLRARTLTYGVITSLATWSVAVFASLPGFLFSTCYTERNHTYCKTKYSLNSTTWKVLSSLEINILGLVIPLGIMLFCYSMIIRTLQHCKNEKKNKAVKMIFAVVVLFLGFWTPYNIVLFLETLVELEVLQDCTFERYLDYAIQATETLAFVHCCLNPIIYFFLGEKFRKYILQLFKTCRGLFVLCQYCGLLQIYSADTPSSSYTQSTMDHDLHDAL

human CCR4 (human) = human CCR4 (human) (UniProt P51679); assay: cell-based or functional assay
Chain of human CCR4 (human) (P51679 whole entry): as above

[4] = target: human CCR8 tagged with ProLink (human); assay: cell-based or functional assay
human CCR8 (human) = human CCR8 (human) (UniProt P51685); assay: cell-based or functional assay

Chain of Ustekinumab (antibody) (HC): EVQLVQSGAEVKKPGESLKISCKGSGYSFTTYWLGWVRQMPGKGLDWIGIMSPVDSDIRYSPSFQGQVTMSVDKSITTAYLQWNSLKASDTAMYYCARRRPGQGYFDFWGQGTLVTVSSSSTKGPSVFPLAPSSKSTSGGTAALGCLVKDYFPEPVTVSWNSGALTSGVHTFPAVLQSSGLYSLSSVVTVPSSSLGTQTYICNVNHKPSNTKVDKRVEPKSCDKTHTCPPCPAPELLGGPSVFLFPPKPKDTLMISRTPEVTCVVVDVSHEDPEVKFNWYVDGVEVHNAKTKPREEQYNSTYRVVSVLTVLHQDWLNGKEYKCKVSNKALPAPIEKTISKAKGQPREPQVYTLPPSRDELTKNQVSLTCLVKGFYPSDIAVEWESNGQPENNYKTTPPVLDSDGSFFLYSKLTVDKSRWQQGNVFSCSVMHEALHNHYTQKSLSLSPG
Chain of Ustekinumab (antibody) (LC): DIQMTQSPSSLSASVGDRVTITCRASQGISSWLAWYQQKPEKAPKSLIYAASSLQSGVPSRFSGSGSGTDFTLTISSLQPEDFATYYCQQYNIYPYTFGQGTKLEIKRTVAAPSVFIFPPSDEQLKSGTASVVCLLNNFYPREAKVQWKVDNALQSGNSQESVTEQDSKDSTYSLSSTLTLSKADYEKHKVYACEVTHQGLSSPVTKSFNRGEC
Chain of cynomolgus CCR8 (cynomolgus) (O97665 other isoform, or with tags, fused parts or gaps): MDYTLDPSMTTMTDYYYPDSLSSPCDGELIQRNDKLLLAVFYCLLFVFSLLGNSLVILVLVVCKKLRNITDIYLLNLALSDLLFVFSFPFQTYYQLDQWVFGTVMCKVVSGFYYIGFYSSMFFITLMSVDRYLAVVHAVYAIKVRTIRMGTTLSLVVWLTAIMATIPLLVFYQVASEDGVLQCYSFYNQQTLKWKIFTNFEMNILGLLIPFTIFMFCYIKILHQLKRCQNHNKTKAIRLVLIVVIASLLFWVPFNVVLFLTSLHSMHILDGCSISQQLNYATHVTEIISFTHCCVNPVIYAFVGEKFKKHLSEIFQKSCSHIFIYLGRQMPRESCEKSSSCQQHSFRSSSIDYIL
Chain of murine CCR8 (mouse) (P56484 whole entry): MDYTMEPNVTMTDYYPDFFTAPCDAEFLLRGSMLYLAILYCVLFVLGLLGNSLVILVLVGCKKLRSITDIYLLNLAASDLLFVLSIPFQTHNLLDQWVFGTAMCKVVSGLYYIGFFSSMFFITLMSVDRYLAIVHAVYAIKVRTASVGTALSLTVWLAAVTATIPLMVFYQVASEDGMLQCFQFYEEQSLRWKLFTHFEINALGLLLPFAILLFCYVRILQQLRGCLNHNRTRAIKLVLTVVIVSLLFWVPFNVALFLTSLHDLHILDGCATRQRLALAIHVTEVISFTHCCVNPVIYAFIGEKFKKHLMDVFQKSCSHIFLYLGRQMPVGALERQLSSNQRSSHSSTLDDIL

Substance: L263G8 (Biolegend) (antibody)
- MFI [2]: < 1000

Substance: SA214G2 (antibody)
- Internalization [fold isotype], mBW5147.3 cells, BODIPY FL-labelled antibody (murine CCR8 (mouse)): 11 fold isotype

Substance: CCL1 (human) (from UniProt P22362 24-96) (ligand)
- EC80 of β-arrestin signaling (DiscoverX assay) [4]: 20 ng/mL

Substance: Briakinumab (antibody)
- pH at Elution [1]: 7.85 pH

Other lines, results leading:

- pH at Elution [1]: 7.22 pH
Substance: Ustekinumab (antibody)

- ADCC EC50, activated Tregs + NK92v, Donor 1213 [3]: 0.31 nM
- ADCC EC50, activated Tregs + NK92v, Donor 1730 [3]: 1.09 nM
- ADCC Max Response, activated Tregs + NK92v, Donor 1213 [3]: 58%
- ADCC Max Response, activated Tregs + NK92v, Donor 1730 [3]: 65%
- ADCC Max Response (%); activated human Tregs (Donor 1100) as target cells, NK92v effector cells (human CCR4 (human)): 96%
- ADCC Max Response (%); activated human Tregs (Donor 1100), NK92v effector cells (human CCR4 (human)): 74%
- ADCC Max Response (%); activated human Tregs (Donor 1261), NK92v effector cells (human CCR4 (human)): 71%
- ADCC hTreg EC50 (pM); activated human Tregs (Donor 1100) as target cells, NK92v effector cells (human CCR4 (human)): 35.2 pM
- ADCC hTreg EC50 (pM); activated human Tregs (Donor 1100), NK92v effector cells (human CCR4 (human)): 193 pM
- ADCC hTreg EC50 (pM); activated human Tregs (Donor 1261), NK92v effector cells (human CCR4 (human)): 86.4 pM
Substance: Mogamulizumab (antibody)

- IC50 in nM for inhibition of CCL1 induced β-arrestin signaling (DiscoverX assay), CHO with hCCR8 [4]: 13.8 nM
- Ca flux assay IC50 (nM), block of signaling induced by CCL1 at 60 ng/ml; CHO cells expressing human CCR8 (human CCR8 (human)): 1.26 nM
- Ca flux assay Span ratio (from max to min), block of signaling induced by CCL1 at 60 ng/ml; CHO cells expressing human CCR8 (human CCR8 (human)): 921
- Internalization [fold isotype], HuT78 cells, BODIPY FL-labelled antibody (human CCR8 (human)): 22 fold isotype
Substance: L263G8 (antibody)

Source: patent US20240376218A1
